Measured values reported in paper doi:10.1101/2020.10.28.358481.
Numbering of substitutions follows the chain as printed.

B1: scaffold 1 (RMP at -3) (structured_RNA)
RNA 1: UUUUCAUGCAUCGCGUAGGCUCAUACCGUAUUGAGACCUUUUGGUCUCAAUACGGUA
RNA 2: UGAGCCUACGCGAUG
modifications: strand 2 position 13 (written A) is remdesivir monophosphate (RMP, 1'-cyano)
B2: scaffold 2 (RMP at -4) (structured_RNA)
RNA 1: B1 RNA 1 with U11C, C12U
RNA 2: UGAGCCUACGCAGUG
modifications: strand 2 position 12 (written A) is remdesivir monophosphate (RMP, 1'-cyano); oligo R-4

Target: nsp12 (RdRp catalytic subunit);nsp8;nsp7 (SARS-CoV-2;SARS-CoV-2;SARS-CoV-2, UniProt P0DTD1;P0DTD1;P0DTD1 4393-5324;3943-4140;3860-3942, ||)
Assay: cryo-EM

Binder | binding result
B1 | binds
B2 | binds
